Ends that are not written are not given here. * marks the point of attachment. Palmitoyl = CCCCCCCCCCCCCCCC(=O)*
B1: CXCR4 i2 loop compound 83 (peptide)
peptide: Palmitoyl-HATNSQRPRKLLAEKV-NH2
SMILES: CCCCCCCCCCCCCCCC(=O)N[C@@H](Cc1c[nH]cn1)C(=O)N[C@@H](C)C(=O)N[C@H](C(=O)N[C@@H](CC(N)=O)C(=O)N[C@@H](CO)C(=O)N[C@@H](CCC(N)=O)C(=O)N[C@@H](CCCNC(=N)N)C(=O)N1CCC[C@H]1C(=O)N[C@@H](CCCNC(=N)N)C(=O)N[C@@H](CCCCN)C(=O)N[C@@H](CC(C)C)C(=O)N[C@@H](CC(C)C)C(=O)N[C@@H](C)C(=O)N[C@@H](CCC(=O)O)C(=O)N[C@@H](CCCCN)C(=O)N[C@H](C(N)=O)C(C)C)[C@@H](C)O
B2: CXCR4 i2 loop compound 82 (peptide)
peptide: Palmitoyl-HATNSQRPRKLLAEK-NH2
SMILES: CCCCCCCCCCCCCCCC(=O)N[C@@H](Cc1c[nH]cn1)C(=O)N[C@@H](C)C(=O)N[C@H](C(=O)N[C@@H](CC(N)=O)C(=O)N[C@@H](CO)C(=O)N[C@@H](CCC(N)=O)C(=O)N[C@@H](CCCNC(=N)N)C(=O)N1CCC[C@H]1C(=O)N[C@@H](CCCNC(=N)N)C(=O)N[C@@H](CCCCN)C(=O)N[C@@H](CC(C)C)C(=O)N[C@@H](CC(C)C)C(=O)N[C@@H](C)C(=O)N[C@@H](CCC(=O)O)C(=O)N[C@@H](CCCCN)C(N)=O)[C@@H](C)O
B3: CXCR4 i2 loop compound 81 (peptide)
peptide: Palmitoyl-HATNSQRPRKLLAE-NH2
SMILES: CCCCCCCCCCCCCCCC(=O)N[C@@H](Cc1c[nH]cn1)C(=O)N[C@@H](C)C(=O)N[C@H](C(=O)N[C@@H](CC(N)=O)C(=O)N[C@@H](CO)C(=O)N[C@@H](CCC(N)=O)C(=O)N[C@@H](CCCNC(=N)N)C(=O)N1CCC[C@H]1C(=O)N[C@@H](CCCNC(=N)N)C(=O)N[C@@H](CCCCN)C(=O)N[C@@H](CC(C)C)C(=O)N[C@@H](CC(C)C)C(=O)N[C@@H](C)C(=O)N[C@@H](CCC(=O)O)C(N)=O)[C@@H](C)O
B4: Compound No. 38 (Pal-MGYQKKLRSMTDKYRL-amide) (peptide)
peptide: Palmitoyl-MGYQKKLRSMTDKYRL-NH2
SMILES: CCCCCCCCCCCCCCCC(=O)N[C@@H](CCSC)C(=O)NCC(=O)N[C@@H](Cc1ccc(O)cc1)C(=O)N[C@@H](CCC(N)=O)C(=O)N[C@@H](CCCCN)C(=O)N[C@@H](CCCCN)C(=O)N[C@@H](CC(C)C)C(=O)N[C@@H](CCCNC(=N)N)C(=O)N[C@@H](CO)C(=O)N[C@@H](CCSC)C(=O)N[C@H](C(=O)N[C@@H](CC(=O)O)C(=O)N[C@@H](CCCCN)C(=O)N[C@@H](Cc1ccc(O)cc1)C(=O)N[C@@H](CCCNC(=N)N)C(=O)N[C@@H](CC(C)C)C(N)=O)[C@@H](C)O
B5: CXCR4 i4 loop compound 116 (peptide)
peptide: Palmitoyl-GAKFKTSAQHALTSVR-NH2
SMILES: CCCCCCCCCCCCCCCC(=O)NCC(=O)N[C@@H](C)C(=O)N[C@@H](CCCCN)C(=O)N[C@@H](Cc1ccccc1)C(=O)N[C@@H](CCCCN)C(=O)N[C@H](C(=O)N[C@@H](CO)C(=O)N[C@@H](C)C(=O)N[C@@H](CCC(N)=O)C(=O)N[C@@H](Cc1c[nH]cn1)C(=O)N[C@@H](C)C(=O)N[C@@H](CC(C)C)C(=O)N[C@H](C(=O)N[C@@H](CO)C(=O)N[C@H](C(=O)N[C@@H](CCCNC(=N)N)C(N)=O)C(C)C)[C@@H](C)O)[C@@H](C)O
B6: CXCR4 i4 loop compound 107 (peptide)
peptide: GAKFKTSAQHALTSVSRGSSLKILSKGKRGGHSSVST-NH2
modifications: not fully specified (N-terminus); also: dual lipid, backbone lipid not given here
B7: CXCR4 i4 loop compound 109 (peptide)
peptide: Palmitoyl-GAKFKTSAQHALTSVSRGSSLKILSKGKRGGHSSVST-NH2
SMILES: CCCCCCCCCCCCCCCC(=O)NCC(=O)N[C@@H](C)C(=O)N[C@@H](CCCCN)C(=O)N[C@@H](Cc1ccccc1)C(=O)N[C@@H](CCCCN)C(=O)N[C@H](C(=O)N[C@@H](CO)C(=O)N[C@@H](C)C(=O)N[C@@H](CCC(N)=O)C(=O)N[C@@H](Cc1c[nH]cn1)C(=O)N[C@@H](C)C(=O)N[C@@H](CC(C)C)C(=O)N[C@H](C(=O)N[C@@H](CO)C(=O)N[C@H](C(=O)N[C@@H](CO)C(=O)N[C@@H](CCCNC(=N)N)C(=O)NCC(=O)N[C@@H](CO)C(=O)N[C@@H](CO)C(=O)N[C@@H](CC(C)C)C(=O)N[C@@H](CCCCN)C(=O)N[C@H](C(=O)N[C@@H](CC(C)C)C(=O)N[C@@H](CO)C(=O)N[C@@H](CCCCN)C(=O)NCC(=O)N[C@@H](CCCCN)C(=O)N[C@@H](CCCNC(=N)N)C(=O)NCC(=O)NCC(=O)N[C@@H](Cc1c[nH]cn1)C(=O)N[C@@H](CO)C(=O)N[C@@H](CO)C(=O)N[C@H](C(=O)N[C@@H](CO)C(=O)N[C@H](C(N)=O)[C@@H](C)O)C(C)C)[C@@H](C)CC)C(C)C)[C@@H](C)O)[C@@H](C)O
B8: CXCR4 i4 loop compound 114 (peptide)
peptide: Palmitoyl-GAKFKTSAQHALTSVSRGSSLKILSK-NH2
SMILES: CCCCCCCCCCCCCCCC(=O)NCC(=O)N[C@@H](C)C(=O)N[C@@H](CCCCN)C(=O)N[C@@H](Cc1ccccc1)C(=O)N[C@@H](CCCCN)C(=O)N[C@H](C(=O)N[C@@H](CO)C(=O)N[C@@H](C)C(=O)N[C@@H](CCC(N)=O)C(=O)N[C@@H](Cc1c[nH]cn1)C(=O)N[C@@H](C)C(=O)N[C@@H](CC(C)C)C(=O)N[C@H](C(=O)N[C@@H](CO)C(=O)N[C@H](C(=O)N[C@@H](CO)C(=O)N[C@@H](CCCNC(=N)N)C(=O)NCC(=O)N[C@@H](CO)C(=O)N[C@@H](CO)C(=O)N[C@@H](CC(C)C)C(=O)N[C@@H](CCCCN)C(=O)N[C@H](C(=O)N[C@@H](CC(C)C)C(=O)N[C@@H](CO)C(=O)N[C@@H](CCCCN)C(N)=O)[C@@H](C)CC)C(C)C)[C@@H](C)O)[C@@H](C)O
B9: CXCR4 i4 loop compound 110 (peptide)
peptide: Palmitoyl-GAKFKTSAQHALTSVSRGSSLKILSKGKRGGSCFH-NH2
SMILES: CCCCCCCCCCCCCCCC(=O)NCC(=O)N[C@@H](C)C(=O)N[C@@H](CCCCN)C(=O)N[C@@H](Cc1ccccc1)C(=O)N[C@@H](CCCCN)C(=O)N[C@H](C(=O)N[C@@H](CO)C(=O)N[C@@H](C)C(=O)N[C@@H](CCC(N)=O)C(=O)N[C@@H](Cc1c[nH]cn1)C(=O)N[C@@H](C)C(=O)N[C@@H](CC(C)C)C(=O)N[C@H](C(=O)N[C@@H](CO)C(=O)N[C@H](C(=O)N[C@@H](CO)C(=O)N[C@@H](CCCNC(=N)N)C(=O)NCC(=O)N[C@@H](CO)C(=O)N[C@@H](CO)C(=O)N[C@@H](CC(C)C)C(=O)N[C@@H](CCCCN)C(=O)N[C@H](C(=O)N[C@@H](CC(C)C)C(=O)N[C@@H](CO)C(=O)N[C@@H](CCCCN)C(=O)NCC(=O)N[C@@H](CCCCN)C(=O)N[C@@H](CCCNC(=N)N)C(=O)NCC(=O)NCC(=O)N[C@@H](CO)C(=O)N[C@@H](CS)C(=O)N[C@@H](Cc1ccccc1)C(=O)N[C@@H](Cc1c[nH]cn1)C(N)=O)[C@@H](C)CC)C(C)C)[C@@H](C)O)[C@@H](C)O
B10: CXCR4 i4 loop compound 115 (peptide)
peptide: Palmitoyl-GAKFKTSAQHALTSVSRGSSLK-NH2
SMILES: CCCCCCCCCCCCCCCC(=O)NCC(=O)N[C@@H](C)C(=O)N[C@@H](CCCCN)C(=O)N[C@@H](Cc1ccccc1)C(=O)N[C@@H](CCCCN)C(=O)N[C@H](C(=O)N[C@@H](CO)C(=O)N[C@@H](C)C(=O)N[C@@H](CCC(N)=O)C(=O)N[C@@H](Cc1c[nH]cn1)C(=O)N[C@@H](C)C(=O)N[C@@H](CC(C)C)C(=O)N[C@H](C(=O)N[C@@H](CO)C(=O)N[C@H](C(=O)N[C@@H](CO)C(=O)N[C@@H](CCCNC(=N)N)C(=O)NCC(=O)N[C@@H](CO)C(=O)N[C@@H](CO)C(=O)N[C@@H](CC(C)C)C(=O)N[C@@H](CCCCN)C(N)=O)C(C)C)[C@@H](C)O)[C@@H](C)O
B11: CXCR4 i4 loop compound 112 (peptide)
peptide: Palmitoyl-GAKFKTSAQHALTSVSRGSSLKILSGGK-NH2
SMILES: CCCCCCCCCCCCCCCC(=O)NCC(=O)N[C@@H](C)C(=O)N[C@@H](CCCCN)C(=O)N[C@@H](Cc1ccccc1)C(=O)N[C@@H](CCCCN)C(=O)N[C@H](C(=O)N[C@@H](CO)C(=O)N[C@@H](C)C(=O)N[C@@H](CCC(N)=O)C(=O)N[C@@H](Cc1c[nH]cn1)C(=O)N[C@@H](C)C(=O)N[C@@H](CC(C)C)C(=O)N[C@H](C(=O)N[C@@H](CO)C(=O)N[C@H](C(=O)N[C@@H](CO)C(=O)N[C@@H](CCCNC(=N)N)C(=O)NCC(=O)N[C@@H](CO)C(=O)N[C@@H](CO)C(=O)N[C@@H](CC(C)C)C(=O)N[C@@H](CCCCN)C(=O)N[C@H](C(=O)N[C@@H](CC(C)C)C(=O)N[C@@H](CO)C(=O)NCC(=O)NCC(=O)N[C@@H](CCCCN)C(N)=O)[C@@H](C)CC)C(C)C)[C@@H](C)O)[C@@H](C)O

Molecular target: T1, CXCR4 receptor (human, UniProt P61073 1-352)
T1 sequence (P61073 whole entry): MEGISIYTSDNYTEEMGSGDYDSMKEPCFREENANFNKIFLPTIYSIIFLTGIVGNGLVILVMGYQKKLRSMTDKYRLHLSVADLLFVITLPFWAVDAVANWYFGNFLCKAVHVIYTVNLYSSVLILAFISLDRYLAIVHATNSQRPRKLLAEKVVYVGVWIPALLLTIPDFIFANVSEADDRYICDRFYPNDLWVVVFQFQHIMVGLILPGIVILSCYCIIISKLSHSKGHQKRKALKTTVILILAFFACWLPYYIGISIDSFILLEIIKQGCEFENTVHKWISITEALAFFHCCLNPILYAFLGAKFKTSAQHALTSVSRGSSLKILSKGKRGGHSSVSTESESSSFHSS
Assay: cell-based or functional assay

Going from B1 to B2, the “AUC (% of vehicle), chemotaxis, SUPB-15, 1.0 uM” value falls from 126 % of vehicle to 125 % of vehicle.

B3 was tested, and the “AUC (% of vehicle), chemotaxis, SUPB-15, 1.0 uM” value was 79.8 % of vehicle.

Going from B1 to B2, the “Max (% of vehicle), chemotaxis, SUPB-15, 1.0 uM” value rises from 110 % of vehicle to 126 % of vehicle.

With B3 the “Max (% of vehicle), chemotaxis, SUPB-15, 1.0 uM” value was 76.5 % of vehicle.

First: B1
Second: B2
The “Peak Ratio, chemotaxis, SUPB-15, 1.0 uM” value of the first is higher: 1 for the first, 0.2 for the second.

For B3, the “Peak Ratio, chemotaxis, SUPB-15, 1.0 uM” value was 0.2.

Molecular target: T1, CXCR4 receptor
Assay: cell-based or functional assay
Remark: another data set of the same source

With B4 the “IC50 (nM), calcium flux, CCRF-CEM” value was 98 nM.

Molecular target: T1, CXCR4 receptor
Assay: cell-based or functional assay
Remark: another data set of the same source

Compared with GAKFKTSAQHALTSVSRGSSLKILSKGKRG-NH2 (not fully specified (N-terminus)) [CXCR4 i4 loop compound 108], B5 is lower in “AUC (% of Vehicle), CHTX, CEM, 1.0 uM” value: 89.5 % of Vehicle for the first, 65.3 % of Vehicle for the second.

Compared with B6, B7 is lower in “AUC (% of Vehicle), CHTX, CEM, 1.0 uM” value: 57.3 % of Vehicle for the first, 49.3 % of Vehicle for the second.

Compared with B8, B9 is higher in “AUC (% of Vehicle), CHTX, CEM, 1.0 uM” value: 34.2 % of Vehicle for the first, 41 % of Vehicle for the second.

First: B10
Second: B11
The “AUC (% of Vehicle), CHTX, CEM, 1.0 uM” value of the first is higher: 77.5 % of Vehicle for the first, 48.9 % of Vehicle for the second.

Going from GAKFKTSAQHALTSVSRGSSLKILSKGKRG-NH2 (not fully specified (N-terminus)) [CXCR4 i4 loop compound 108] to B5, the “Max (% of Vehicle), CHTX, CEM, 1.0 uM” value falls from 83.9 % of Vehicle to 80.5 % of Vehicle.

First: B6
Second: B7
The “Max (% of Vehicle), CHTX, CEM, 1.0 uM” value of the first is lower: 49.5 % of Vehicle for the first, 49.8 % of Vehicle for the second.

First: B8
Second: B9
The “Max (% of Vehicle), CHTX, CEM, 1.0 uM” value of the first is higher: 63.1 % of Vehicle for the first, 42.1 % of Vehicle for the second.

Going from B10 to B11, the “Max (% of Vehicle), CHTX, CEM, 1.0 uM” value falls from 92.1 % of Vehicle to 54.7 % of Vehicle.

Going from GAKFKTSAQHALTSVSRGSSLKILSKGKRG-NH2 (not fully specified (N-terminus)) [CXCR4 i4 loop compound 108] to B5, the “Peak Ratio, CHTX, CEM, 1.0 uM” value falls from 5 to 1.

First: B6
Second: B7
The “Peak Ratio, CHTX, CEM, 1.0 uM” value of the first is higher: 5 for the first, 0.04 for the second.

B8 and B9 are the same in “Peak Ratio, CHTX, CEM, 1.0 uM” value: 1 for the first, 1 for the second.

First: B10
Second: B11
The “Peak Ratio, CHTX, CEM, 1.0 uM” value of the first is higher: 1 for the first, 0.2 for the second.

Molecular target: T1, CXCR4 receptor
Assay: cell-based or functional assay
Remark: another data set of the same source

With B4 the “AUC (% of), CHTX, SUP B-15, 1.0 uM” value was 32.4%.

For B4, the “Max (% of), CHTX, SUP B-15, 1.0 uM” value was 49.6%.

B4 was tested, and the “Peak Ratio, CHTX, CEM, 1.0 uM” value was 0.2.

For B4, the “Peak Ratio, CHTX, SUP B-15, 1.0 uM” value was 0.2.

— patent US20130210709A1 (ANCHOR THERAPEUTICS, published 2013)
